Here are results for three compounds from article PMC7577485, “An intrinsic mechanism for coordinated production of the contact-dependent and contact-independent weapon systems in a soil bacterium” (PLoS Pathogens, 2020).

For data set [1], the target named is T1, GST-Clp (Clp) (Lysobacter enzymogenes, UniProt Q7WZ07).
T1 construct: labelled with NT-647-NHS for MST
T1 sequence (Q7WZ07 1-229): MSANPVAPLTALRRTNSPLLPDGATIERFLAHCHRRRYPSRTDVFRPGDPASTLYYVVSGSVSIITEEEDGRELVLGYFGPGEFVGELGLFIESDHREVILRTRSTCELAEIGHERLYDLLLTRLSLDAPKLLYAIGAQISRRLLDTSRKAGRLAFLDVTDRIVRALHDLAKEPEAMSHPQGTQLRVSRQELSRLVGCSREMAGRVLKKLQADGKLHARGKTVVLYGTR
The data set is described as follows: microscale thermophoresis, NT-647-labelled GST-Clp. The class given is binding. Conditions: 25 °C; 10 μM labelled protein (130 mM NaHCO3, 50 mM NaCl); no Hcp; protein concentration above Kd. (In MST a laser heats a spot of the sample, and binding alters the fluorescence response.)

Data set [2] deals with GST-Clp (Lysobacter enzymogenes) (UniProt Q7WZ07). The data set is described as follows: MST; 10 μM NT-647-NHS labelled GST-Clp or GST in label buffer (130 mM NaHCO3, 50 mM NaCl) titrated with unlabelled Hcp-His6 in PBS; Monolith NT.115, 25°C, 80% MST power, 20% LED power.
The subject of data set [3] is Clp (Lysobacter enzymogenes OH11). Kind of data set: MST. The note with it: MST: 0.5 uM FAM-DNA, Clp in PBS, 25 C.

`Nc1nc2c(ncn2[C@@H]2O[C@@H]3COP(=O)(O)O[C@H]4[C@@H](O)[C@H](n5cnc6c(=O)[nH]c(N)nc65)O[C@@H]4COP(=O)(O)O[C@H]3[C@H]2O)c(=O)[nH]1` [c-di-GMP]: the Kd in data set [1] came out at 1.5 µM. This lies in the single-digit micromolar range.

With Hcp-His6 (natural protein), the Kd in data set [2] came to 1.51 µM.

As for PA site probe, HSAF operon promoter, in data set [3], the Kd stood at 0.39 µM.

A word on the Kd: it is a measure of binding affinity in units of concentration. High values mean weaker binding, low ones tighter binding.
